Substitutions are numbered along the chain they refer to. In names and notes the source's numbering stands.

T1: S100A9(C3S), subunit of CP-Ser (human, UniProt P06702 2-114, C3S)
T1 sequence (looked up): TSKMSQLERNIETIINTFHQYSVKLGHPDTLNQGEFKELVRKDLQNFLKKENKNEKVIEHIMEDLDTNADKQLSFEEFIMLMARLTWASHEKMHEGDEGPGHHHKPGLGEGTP

B1: CP-Ser, S100A8(C42S)/S100A9(C3S) heterodimer of human calprotectin (complex)
chain 1: MLTELEKALNSIIDVYHKYSLIKGNFHAVYRDDLKKLLETESPQYIRKKGADVWFKELDINTDGAVNFQEFLILVIKMGVAAHKKSHEESHKE
chain 2: T1 sequence (looked up)
B2: S100A8, subunit of native CP (natural protein, human, UniProt P05109 1-93, looked up)
chain: B1 chain 1 with S42C
B3: S100A9, subunit of native CP (natural protein, human, UniProt P06702 2-114, looked up)
chain: T1 sequence (looked up) with S2C
B4: CP-Ser M81A variant, S100A8(C42S)/S100A9(C3S)(M81A) (complex, human)
chain 1: B1 chain 1
chain 2: T1 sequence (looked up) with M80A
B5: S100A8(C42S), subunit of CP-Ser (natural protein, human, UniProt P05109 1-93, looked up)
chain: B1 chain 1

The data set “SEC” concerns the molecule itself. The experiment in a line: SEC. For orientation: SEC sorts molecules by how far they enter the pores of the column.
Data set [1] concerns the target B3. Put plainly: cross-linking.
The data set “cross-linking” concerns the molecule itself. Put plainly: cross-linking.
The target of data set [2] is T1, S100A9(C3S), subunit of CP-Ser. Put plainly: anion exchange chromatography.

For B1, the binding result in the data set “SEC” is listed as “binds”.

For B2, the binding result in data set [1] is reported as “binds”.

For the molecule B3, the binding result in the data set “cross-linking” is recorded as “binds”.

With B4, the binding result in “SEC” is reported as “binds”.

On to B5, for which the binding result in data set [2] was “binds”.

The values above are taken from PMC6534964 (Journal of the American Chemical Society, 2018).
